Experiments:
mouse serpinB13 (mouse) = mouse serpinB13 (mouse) (UniProt Q8CDC0); assay: flow cytometry, isotype control staining in place of B29 and anti-EpCAM; the tissue of this panel is not named
[1] = target: T1, recombinant human serpinB13 (human, UniProt Q9UIV8 1-391)
T1 construct: The baculovirus-made protein (GenScript) was used for panning, ELISA and the cathepsin L assay; In the Luminex assay human serpinB13 was V5-His tagged and came from 293 cell lysates; also called rhB13
T1 sequence (looked up): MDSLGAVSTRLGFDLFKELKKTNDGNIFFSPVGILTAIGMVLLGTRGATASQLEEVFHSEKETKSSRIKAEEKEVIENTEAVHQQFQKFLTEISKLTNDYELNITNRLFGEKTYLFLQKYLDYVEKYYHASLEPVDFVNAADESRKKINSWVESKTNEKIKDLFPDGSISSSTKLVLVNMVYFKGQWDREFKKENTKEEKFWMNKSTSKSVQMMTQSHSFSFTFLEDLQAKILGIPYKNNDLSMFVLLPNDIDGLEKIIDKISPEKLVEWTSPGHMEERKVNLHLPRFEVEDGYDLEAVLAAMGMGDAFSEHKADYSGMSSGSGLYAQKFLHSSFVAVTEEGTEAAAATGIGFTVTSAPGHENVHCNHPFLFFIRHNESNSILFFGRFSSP

Sequence of mouse serpinB13 (mouse) (Q8CDC0 whole entry): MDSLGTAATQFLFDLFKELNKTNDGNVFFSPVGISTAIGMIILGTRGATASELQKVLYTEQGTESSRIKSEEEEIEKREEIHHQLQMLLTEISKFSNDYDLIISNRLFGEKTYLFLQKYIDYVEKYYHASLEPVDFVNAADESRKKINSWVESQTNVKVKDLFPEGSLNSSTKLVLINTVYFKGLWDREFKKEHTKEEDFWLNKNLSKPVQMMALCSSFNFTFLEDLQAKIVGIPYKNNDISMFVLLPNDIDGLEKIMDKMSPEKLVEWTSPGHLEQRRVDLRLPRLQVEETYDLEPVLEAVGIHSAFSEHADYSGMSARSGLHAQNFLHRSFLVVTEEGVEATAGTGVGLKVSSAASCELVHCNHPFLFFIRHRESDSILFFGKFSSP

| Substance | quadrant Q1 (SerpinB13-Alexa647 high, EpCAM low), percent of cells (mouse serpinB13 (mouse)) | substrate cleavage by CatL (fluorescence, kinetic mode) [1] |
| --- | --- | --- |
| Control Ab (antibody) | 0.43 | – |
| cathepsin L (Cathepsin L Inhibitor Screening Kit, BioVision) | – | Inhibition of a substrate cleavage by CatL with different doses of recombinant human serpinB13 over time |

Reference: patent publication US20260116996A1 (REGENTS OF THE UNIVERSITY OF MINNESOTA, published 2026)
